# According to paper PMC4859805, “Molecular mechanism of activation-triggered subunit exchange in Ca^2+/calmodulin-dependent protein kinase II” (eLife, 2016):
# B1: Peptide B (human CaMKII-α 290-309, unphosphorylated, unlabeled) [human] / human CaMKII-α hub domain [human] (parent complex)
# chain 1: LKKFNARRKLKGAILTTMLA
# chain 2: VRKQEIIKVTEQLIEAISNGDFESYTKMCDPGMTAFEPEALGNLVEGLDFHRFYFENLWSRNSKPVHTTILNPHIHLMGDESACIAYIRITQYLDAGGIPRTAQSEETRVWHRRDGKWQIVHFHRSGAPSV
# Variants of: B1
# Assay: fluorescence polarisation competition; point read at 500 µM unlabeled peptide; 2 nM labeled peptide A bound to 30 µM hub; lower polarization = more labeled peptide competed off; parent: 150; read off a plot
row,Variant,response
1,chain 1 R7E,~160
2,chain 1 K11E,~180
3,"chain 1 K3E, chain 1 R7E, chain 1 K11E",~210
